Results reported in patent publication US20070207967.

Key:
[1] = system: PPC peptide, soluble recombinant 18-mer ADGACGYGRFSPPCGAAG
[2] = biological target: recombinant soluble human uPAR (suPAR) (UniProt Q03405)
recombinant soluble human uPAR (suPAR), sequence (Q03405 whole entry, looked up, tested part not stated): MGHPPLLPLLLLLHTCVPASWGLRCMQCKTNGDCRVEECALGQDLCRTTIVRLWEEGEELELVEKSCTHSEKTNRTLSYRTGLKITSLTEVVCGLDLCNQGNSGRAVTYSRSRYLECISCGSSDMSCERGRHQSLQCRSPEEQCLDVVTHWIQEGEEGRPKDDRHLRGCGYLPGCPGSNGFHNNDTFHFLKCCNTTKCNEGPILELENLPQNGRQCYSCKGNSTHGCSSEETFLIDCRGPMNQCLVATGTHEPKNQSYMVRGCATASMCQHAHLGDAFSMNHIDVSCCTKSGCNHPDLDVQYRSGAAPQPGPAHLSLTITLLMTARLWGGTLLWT

trypsin-activated MMP-9, sequence (chain, as listed by the source): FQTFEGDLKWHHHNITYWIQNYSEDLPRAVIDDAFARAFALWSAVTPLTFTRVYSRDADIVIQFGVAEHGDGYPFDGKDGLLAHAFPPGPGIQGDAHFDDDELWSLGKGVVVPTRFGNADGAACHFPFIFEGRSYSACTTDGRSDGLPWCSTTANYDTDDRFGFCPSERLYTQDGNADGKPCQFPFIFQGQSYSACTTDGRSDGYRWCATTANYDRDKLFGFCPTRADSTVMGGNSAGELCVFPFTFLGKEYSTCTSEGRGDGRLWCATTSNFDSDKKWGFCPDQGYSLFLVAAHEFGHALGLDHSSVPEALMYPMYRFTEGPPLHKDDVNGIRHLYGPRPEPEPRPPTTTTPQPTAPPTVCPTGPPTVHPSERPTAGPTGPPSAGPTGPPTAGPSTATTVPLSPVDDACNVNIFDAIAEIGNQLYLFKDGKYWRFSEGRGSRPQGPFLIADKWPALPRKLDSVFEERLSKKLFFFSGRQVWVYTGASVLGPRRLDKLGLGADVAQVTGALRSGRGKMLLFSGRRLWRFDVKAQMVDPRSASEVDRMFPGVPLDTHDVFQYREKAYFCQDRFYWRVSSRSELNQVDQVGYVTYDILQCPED

trypsin-activated MMP-9
gelatin degradation assay (enzymatic activity, biotinylated gelatin substrate) [1]: PPC inhibited both MMP-9 and MMP-2 activity
cleavage of soluble uPAR in vitro (western blot) [2]: MMP-9 cleaved the domain 1 (D1) from uPAR similarly as chymotrypsin does
